Molecular target: KGFR (keratinocyte growth factor receptor, KGFR-type isoform of the FGFR2/BEK gene) (mouse) (UniProt P21803)
Test: cell-based or functional assay

For “KGF secreted from NIH 3T3 cells (from UniProt P36363 32-194) (ligand)”, the Transforming Activity was 14000 ffu/pmol DNA.

— US20020032310A1
